In patent US8268585B2:

B1: 43 kD endoglucanase (pI 4.2), C1-EG6, Family 6, Chrysosporium lucknowense (enzyme)
chain: QASAGCASAVTLDASTNVFQQYTLHPNNFYRAEVEAAAEAISDSALAEKARKVADVGTFLWLDTIENIGRLEPALEDVPCENIVGLVIYDLPGRDCAAKASNGELKVGELDRYKTEYIDKIAEILKAHSNTAFALVIEPDSLPNLVTNSDLQTCQQSASGYREGVAYALKQLNLPNVVMYIDAGHGGWLGWDANLKPGAQELASVYKSAGSPSQVRGISTNVAGWNAWDQEPGEFSDASDAQYNKCQNEKIYINTFGAELKSAGMPNHAIIDTGRNGVTGLRDEWGDWCNVNGAGFGVRPTANTGDELADAFVWVKPGGESDGTSDSSAARYDSFCGKPDAFKPSPEAGTWNQAYFEMLLKNANPSF
B2: 25 kD endoglucanase (pI 4.1), C1-EG5, Family 45, Chrysosporium lucknowense (enzyme)
chain: QLSGSGQTTRYWDCCKPSCAWPGKGPSSPVQACDKNDNPLNDGGSTRSGCDAGGSAYMCSSQSPWAVSDELSYGWAAVKLAGSSESQWCCACYELTFTSGPVAGKKMIVQATNTGGDLGDNHFDLAIPGGGVGIFNACTDQYGAPPNGWGDRYGGIHSKEECESFPEALKPGCNWRFDWFQNADNPSVTFQEVACPSELTSKSGCSR

Target: Dyed casein

Molecule | activity toward dyed casein, 50° C., arbitrary units/mg (arbitrary units/mg)
55 kD cellobiohydrolase (pI 4.4), CBH1, Chrysosporium lucknowense (enzyme) | 0
B1 | 0
B2 | 0
